Experimental data reported in US20240091361A1, “T CELL RECEPTORS TARGETING RAS MUTATIONS AND USES THEREOF” (MEMORIAL SLOAN-KETTERING CANCER CENTER, priority 2021, published 2024).

Assays:
[1] = target: T1, KRAS wild type (10-mer) peptide on HLA-A*11:01 (human); assay: cytokine release
T1 peptide: VVVGAGGVGK

[2] = target: T2, GEM (also listed as SEQ ID NOs 82, 106, 130, 141) peptide on HLA-A*11:01 (human); assay: cytokine release
T2 peptide: AVFGAGGVGK

[3] = target: T3, TUTLA (also listed as SEQ ID NO 134) peptide on HLA-A*11:01 (human); assay: cytokine release
T3 peptide: ISQGADGRGK

[4] = target: T4, FRPD4 peptide on HLA-A*11:01 (human); assay: cytokine release
T4 peptide: KSKLADGEGK

[5] = target: T5, TAF6 peptide on HLA-A*11:01 (human); assay: cytokine release
T5 peptide: GATTADGKGK

[6] = target: T6, DCAF7 peptide on HLA-A*11:01 (human); assay: cytokine release
T6 peptide: ASVGADGSVR

[7] = target: T7, ELP2 peptide on HLA-A*11:01 (human); assay: cytokine release
T7 peptide: VSAAADSAVR

[8] = target: T8, FRPD1 peptide on HLA-A*11:01 (human); assay: cytokine release
T8 peptide: KVAAADGPAR

[9] = target: T9, INO80 peptide on HLA-A*11:01 (human); assay: cytokine release
T9 peptide: SSLAPDSLVR

[10] = target: T10, KI26A peptide on HLA-A*11:01 (human); assay: cytokine release
T10 peptide: PVAGPDGLSK

[11] = target: T11, PRP4 peptide on HLA-A*11:01 (human); assay: cytokine release
T11 peptide: ASCAADGSVK

[12] = target: T12, KRAS G12D (10-mer; the same sequence in NRAS G12D and HRAS G12D) peptide on HLA-A*11:01 (human); assay: multimer staining
T12 peptide: VVVGADGVGK

- binding result [1]: no recognition
- binding result [2]: no recognition
- binding result [3]: no recognition
- binding result [4]: no recognition
- binding result [5]: no recognition
- binding result [6]: no recognition
- binding result [7]: no recognition
- binding result [8]: no recognition
- binding result [9]: no recognition
- binding result [10]: no recognition
- binding result [11]: no recognition
- binding result [12]: recognises
B1: TCR 5 (TCR, V domains shown)
Valpha: GEDVEQSLFLSVREGDSSVINCTYTDSSSTYLYWYKQEPGAGLQLLTYIFSNMDMKQDQRLTVLLNKKDKHLSLRIADTQTGDSAIYFCAERDAGNNRKLIWGLGTSLAVNP
Vbeta: GAGVSQSPRYKVAKRGQDVALRCDPISGHVSLFWYQQALGQGPEFLTYFQNEAQLDKSGLPSDRFFAERPEGSVSTLKIQRTQQEDSAVYLCASSLEGGDTQYFGPGTRLTVL
